Experimental data published in the nanobody polyreactivity screen of Harvey et al. (2022).

assay: yeast display, Sf9 membrane polyspecificity reagent, FACS + sequencing; frameworks hold sequencing errors
Procedure, shortened: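 Sorting gates, low and high (top ~1%), were placed on anti-HA fluorescence to track expression and on streptavidin fluorescence to track reagent binding. A clone's polyreactivity label is taken from the gate it came out of. The reagent was 10% biotinylated, detergent-solubilized Sf9 membrane, applied for 1 hour at 4 °C to galactose-induced yeast display cells.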

| Sequence | polyreactivity (PSR sort gate) |
| --- | --- |
| QVQLQESGGGLVQEGGSLRLSCAASGSIFKVVHMGLYRQAPAKEREFVATIGEGGNTYYADSVKGRFTISRDNAKNTVYLQMNSLKPVDTAVYFYAVVLGTSYRYTYWGQGTQVTVSS | low polyreactivity |
| QVQLQESGGGLVQEGGSLRLSCSASGNISPPADMGWSRQAPGKERELVASIGTGGTTNYADSVKGRFTISRDNAKNTVYLQMNSLKPDDTAVYYCAAGRYEYNPYDYWGQGTQVTVSS | low polyreactivity |
| QVQLQESGGGLVQGGGSLRLSCAASGSNYRSWYMGWYRQAPGKERELVASITEGATTNYAYSVKAALPLAAITRNTVYLQMDSMKPEDTAVYYRAASFGSTYDLVYWGQGTQVTVSS | high polyreactivity |
| QVQLQESGGGLVQVGGSQRLSCAASGNIFYNYAMGWYRHAQGKEREFDATINHGTSINYADSVKGRFTISRDNAKNTVYLQMNSLKPEDTAVYYCAARVVRYGYKYYYWGQGTQVTVSS | low polyreactivity |
| QVQLQESGGGLVRAGGSLRLSCAASGYISTSIAIGWYRQAPGKERELVASFGAGAITNYADSVKGFTISRDNGKKTVYLQMNSLKPVDTALYYCAVYHGDRGYYSYWGQGTQVTVSS | low polyreactivity |
| QVQLQESGGGLVRAGGSLRLSCAASGYISTSIAMGWYRQAPGKERELVASFGRGAITNYADSVKGFTISRDNGKNSVYLQMNSLKPEDTAVYYCAVYHGDRGYYSYWGQGTQVNVSS | low polyreactivity |
| QVQLQESGGGLVRAGGSLRMSCAASGNIFDADIMGWYRQAPGKERELVASITDGRRTNYADSVKGRYTISRDSEKNTVYLQMNSLKPEDTAVYYCAAIAYPVVPTYFDYDSDYFHWGQGTQVTVRS | high polyreactivity |
| QVQLQESGGGLVRAGGSLSLSCAASGTIFGQFYMGRYRQAPGKEREFVATINYGSSTNYADSVKGRYTISRDNAKNTVYLQMNSLKPEDTAVYYCNTDFFYYGYNFPYFDYDYWGQGSQVTVSS | low polyreactivity |
| QVQLQESGGGMVQAGGSLRLSCAASGYISWADYMGWYRQAPGKERELVAGIGYGSTTYYADSVKGRFTISRDNAKNTAYLQMNSLKPQYTAVYYCAVGWYRDTAYKYWGQGTQVTVSS | low polyreactivity |
| QVQLQESGGGMVQAGGSLRLSCAASGYISWADYMVWYRQAPGKERELVAGIGYGSTTYYADSVKGRFTISRDNAKNTAYLQMNSLKPEDTAVYYCAVGWYRDTAYKYWGQGTQVTVSS | low polyreactivity |
| QVQLQESGGGMVQAGVSLRLSCAASGTISNAPHMGWYRQAPAKERELVAGITIGGTTYYADSVKGRFTISRDNAKNTVYLQMNSLSPGVTAVYDCAAHSEQYTPFYYWGQGTQVTVSS | low polyreactivity |
| QVQLQESGGGPVLAGGSLRLSCAASGTIFVRLDMGWYRQAPGKEREFVATIGSGSSTYYADSVKGSFTISRDNVKNTVYLQMNSLKPEDTAVYYCAVSAAEQSRHYYWDQGTQVTVSS | low polyreactivity |
| QVQLQESGGGQVHAGGSLRLSCAASGTIFLYAFMGWYRQPPAKERELVAAIDVGTTTNYADSVKGRFTISRDNEKNTVYLQMNSLKPEDTAVYYCAANLGYLDDLGYWGQGTQVTVSS | low polyreactivity |
| QVQLQESGGGQVQAGGSLRLSCAASGYMSTHYFMGWYRQSPGKDREFVAGISNGSITNYADSVKGRFTISRDNARNTVYLQMNSLKPEYTAVYYGAAFEWTYVRFGYWGQGTQVTVSG | high polyreactivity |
| QVQLQESGGLVQAGGSLRLSCAASGSISGRNVMGWYRQAPGQEREFVASITDGSSTNYADSVKGRFTISRDNAKNTVYLQMNSLKPKDTAVYYCAAYAQRAKSFGYWGRGTQVTVSS | low polyreactivity |
| QVQLQESGGLVQAGVSLRLSCAASGSISGRNVMGWYLQAPVKQREFVASITDGSSSNYADSVKGRFTISRDNAKNTVYLQMNSLKPTDTAVYYCAAYGLRPKSFGNWGGGTQVTVSS | low polyreactivity |
| QVQLQESGGRLVQAGDSQRLSCASSGNIFRFTDMGWYRQAPGKERELVAAINAGSTTYYADSVKGRFTISRDNAKNTVYLQMNSLKPEDTAFYHCNDPPVYSSTRYGYWGQGTQVTVAS | high polyreactivity |
| QVQLQESGGVLVQAGGSLRLSCAASGYISWYSEMGWYRKAPCKEREFVATNTCGTTTNYAVSVKGRFTISRDNAKNTVYLQKNSLKPEDTAVYYCAVHDARHYEFDYWGQGTQVTVSS | high polyreactivity |
| QVQLQESGRGLVQAGGSLRLSCAASGTISQEDWMGWYRQAPGKEREFVAAIGLGSNTNYADSLKGRFTISRDNAKNTVYLQMNSLKPEDTAVYYCAVSVWQYSDHVYRGQGTQVTVSS | low polyreactivity |
| QVQLQESGSGLVQARGSLRLSCAASGAIFPAYLMGWYRHAPGKERELVAGISYGSITYCADSVKGRFNISRDNAKNTVYLQRNSLKPEDTAVYYCAVWRPGGDEYYYWGQGTQVTVSS | low polyreactivity |
| QVQLQESNGGLVQAGGCLRLSCAASGNIFDADIMGWFRKAPGIERELVASITDGGSTNYADSVKGRFTINRDNALNTVYLQMYSLKPEDTAVYYCAVSYKGWYQLGYWGQGTQVTVSS | high polyreactivity |

| Sequence | polyreactivity (PSR sort gate) |
| --- | --- |
| QVQLQESVGGLVQAGGILRLSCAACGNIFPSAVMGWYRQALGKEREFVATINSGSNTYYADSVKGRFTISRDNATNTVYLQMNSLKLEDTAVYYCAAYFKLPAWHTYWGQGTQVTVSS | low polyreactivity |
| QVQLQESVGGLVQAGGSLRLSCAASGTIFWGDDMGWYRQAPGKERELVASINDGSITYYADSVKGRFTISRDNAKNTVYLQMNSLKPEDTAVYYCAVRIAVVKSYLIYNYWGQGTQVTVSS | high polyreactivity |
| QVQLQETGGGLVQAGGILGCAASGNISTRSEMGWYRQATGKEREFVATINSGGITNYADSVKGRFTISRDNAKNTVYLRMNSLKPEDTAVYYRAVYGYFSDPYDYWGQGTQVTVSS | low polyreactivity |
| QVQLQGSGGGLVQAGGSLRLSCAASGNIFDADIMGWYRQAPGKESELVASITDGGSTNYADSVKGRFTISRDNAKNTVYLQMNSLKQEDTAVYYCAAIAYPDIPTYFDYDSACFYWSQGTQVTVSS | high polyreactivity |
| QVQLQGSGGGLVQAGGSLRLSCAASGNIFDADIMGWYRQAPGKESELVASITDGGSTNYADSVKGRFTISRDNAKNTVYLQMNSLKQVDTAVYYCAAIAYPDIPTYFDYDSDCFYWSQGTQVTVSS | high polyreactivity |
| QVQLQGSGGGLVQAGVSLRLSCAASGYIFQNVPMGWNRHAPGKERELVAGIDNATSTNYADSVNGRFTISLDNAKNTVYLQMNSLKPEDTAVYYCAAAGQADNTLGYWGQGTQVTVSS | low polyreactivity |
| QVQLQVSGGDLVQAGGSLRLSCEASGTIYGLTSMGWYRQAPGKEREFVAAITDGGNTNYADSVKGRFTISRDNAKNTVYLQMISLKPEDTGVYYCAVLFSDDAYYAYWGQGTQVTVSS | low polyreactivity |
| QVQLRESGGGLVQAGGSLSLSCAASGTIFYSRYMGWYRQAPGKEREFVASNSSGGNTNYADSVKGRFTISRDNAKNTVYLQMNSLKPEVSAVYYCEVNTGLITTFPYWGQGTQVTVSS | high polyreactivity |
| QVQLVASGGALVQAGGSLRLSCAASGRISTYTMGWYRQGPGKERELVATISTDASTNYADSVKGRFTISRDNAKNTVYLQMNSLKPEATAVYYCAAVIVNQDYDYWGQGTQLTVSS | low polyreactivity |
| QVQLVASGGGFVQAGGSLRVSCAASGGTILGNAMGWDRQAPGKERELVATITARVGSTYYADSVKGRFTISRDNAKNTVYLQMNSLKPEDTAVYYCAARKVWGYTYGYPYYYWGQGTQVTVSS | high polyreactivity |
| QVQLVASGGGIDQAGGSHRLSCAASGSIFPAYTMGWYRPAPGKERELVAAITRRGGSTYYADSVKGRFTISRDNAKNTVYLQMNSLKPEDSAVYYCAADGFNSDDTPSWYWGEYWGPGTQVTVSS | low polyreactivity |
| QVQLVASGGGLVHAGGSLRLSCAASGGTFWDYAMGWSRQAPGKERELVAVISDSGGTYYADSVKGRFTISRDNAKNTVYLQMNSLKPEDTAVYYCAAGSLTLSTSTVWFAYDYWGQGTQVTVSS | high polyreactivity |
| QVQLVASGGGLVQAGASLRLSCAASGFTFSLYGLGGYRQAPGKERELVAALRSGGSTNYADSVKGRFTISRDNAKNTVYLQLNSLKPEDTAVYYCATDIHSVLNNRVKHDYDYWGQGTQVTVSS | low polyreactivity |
| QVQLVASGGGLVQAGGSLRISCAASGRTITPYAMGWYRQAPGKERELVATISSGTSPNYADSVKGRFTISRDNAKNTVYLQMNSLIPEDTAVYYCAADGYTYKFDYWGQGTQVTVSS | low polyreactivity |
| QVQLVASGGGLVQAGGSLRLSCAASGFIFWYYAMGWYRQAPGKERELVATITSGGSTTYADSVKGRFTISRDNAKNTVYLQMYSLKPEDTAVYYCAAKGISRYDWGQGTQVTVSS | low polyreactivity |
| QVQLVASGGGLVQAGGSLRLSCAASGFTFYYYAMGWYRKAPGKERELVAGISGRGGTTYYADSVKGRFTISRDNAKNTFYLQLNSLKPEDTAVYDCAARKVRARSKFEYWGQGNQVTVSS | high polyreactivity |
| QVQLVASGGGLVQAGGSLRLSCAASGRTFKYNTMGWYRQAPGKERELVAVISRSGGRTYYADSVKGRFTISRDNAKNTVYLQMNSLKPEDTAVYYCAKGIPYADPQSAYDDYWGQGTQVTVSS | high polyreactivity |
| QVQLVASGGGLVQAGGSLRLSCAASGSIFIYYTMGWYRQAPGKERELVAAINRGGSTYYADSVKGRFTISRDNAKNTVYLQMNSLKPEDTAVYYCNARYYRLPYWDAVKYDYWGQGTQVTVSS | low polyreactivity |
| QVQLVASGGGLVQAGGSLRLSCAASGSIFTHNALGWSRQAPGNERALVAAISSGGSTNYADSVKGRFTISRDNAKNTVYLQMNSLKPEDTAVYYCAKSIDGWYWRRRRYDYWGQGTQVTVSS | low polyreactivity |
| QVQLVASGGGLVQEGGSLRLSCAASGSTFYVNAMGWYRPAAGKERELVAAISLSGGRTYYADSVKGRFTISRDNAKNPVYLQMNSLNQEDTAVYYCAARDSARYYWGQGTQVTVSS | high polyreactivity |
